From patent US20180312587A1 (ADURO BIOTECH HOLDINGS EUROPE B V, published 2018)

How the values were obtained:
[1] = molecular target: T1, hSIRPα expressed on primary human cells (human, UniProt P78324 31-504); experiment: flow cytometry, blockade of DyLight488-hCD47/Fc binding to CD14+ enriched monocytes, donor 1
T1 construct: whole, on cells; also called hSIRPα on primary human CD14+ monocytes; on primary human granulocytes
Method: (§1) In addition, the ability of hSIRPα.50A to block the interaction between hSIRPα and recombinant hCD47/Fc-protein was assessed. For this purpose, CD14+ monocytes were isolated from Ficoll-purified human peripheral blood mononuclear cells (PBMCs) using RosetteSep human monocyte enrichment cocktail (Stemcell). The percentage of monocytes present after the enrichment was determined by flow cytometry on the FACSVerse (BD Biosciences) based on CD14 staining using an APC-Cy7-conjugated mouse-anti-human CD14 detection antibody (BD Biosciences). […] After this labeling procedure, cells were washed two times, resuspended in PBS/1% BSA containing 0.1 μg/mL DAPI (BioLegend), and analysed by flow cytometry on the FACSVerse (BD Biosciences). Data were processed and analysed with FlowJo V10 software (FlowJo, LLC).
(§2) To assess the blocking ability of hSIRPα.50A, CD14+ enriched monocytes cells were seeded in 96-well round bottomed tissue culture plates and incubated for 45 minutes with FcR Blocking Reagent (Miltenyi Biotec) and hSIRPα.50A antibody (200 μg/mL and dilutions thereof) in PBS/1% BSA at 4° C. […] After this labeling procedure, cells were washed two times, resuspended in PBS/1% BSA containing 0.1 μg/mL DAPI (BioLegend), and analysed by flow cytometry on the FACSVerse (BD Biosciences). Data were processed and analysed with FlowJo V10 software (FlowJo, LLC).

[2] = molecular target: T2, human SIRPα variant 1 (human, UniProt P78324 31-504); experiment: flow cytometry, blockade of DyLight488-hCD47/Fc binding to U-937 cells
T2 construct: full length ORF on transfected CHO-K1 or HEK293 cells; entry includes the signal peptide; also called hSIRPαV1; SIRPαV1
Method: as §2, with “For this purpose, THP-1 (ATCC TIB-202) and U-937 (ATCC CRL-1593.2) monocyte cell lines were used as” for “To assess”, “source” for “blocking ability”, “hSIRPα in the assay. THP-1 and U-937” for “hSIRPα.50A, CD14+ enriched monocytes”, “FACSCanto II” for “FACSVerse”
(§3) As depicted in FIG. 4 and the following Table 11, binding of recombinant hCD47 fused to an Fc domain of human IgG1 was monitored in the presence of increasing amounts of the hSIRPα.50A antibody. Antibody hSIRPα.50A blocked the hSIRPα/hCD47 interaction, using the flow cytometry-based method described above. […] IC50 values represent the concentration at which half of the inhibition is observed.

[3] = molecular target: T1, hSIRPα expressed on primary human cells; experiment: flow cytometry, primary CD14+ enriched monocytes, donor 1
Method: as §1, with “Next, the binding of hSIRPα.50A to hSIRPα expressed on primary human CD14⁺ monocytes was investigated. In” for “In”
as §2, with “Data were processed and analysed with FlowJo V10 software (FlowJo, LLC).” left out

[4] = molecular target: T3, human SIRPα variant 2 (human, UniProt P78324 31-504); experiment: flow cytometry, blockade of DyLight488-hCD47/Fc binding to THP-1 cells
T3 construct: full length ORF on transfected CHO-K1 cells; also called hSIRPαV2; SIRPαV2
Method: as §2, with “For this purpose, THP-1 (ATCC TIB-202) and U-937 (ATCC CRL-1593.2) monocyte cell lines were used as” for “To assess”, “source” for “blocking ability”, “hSIRPα in the assay. THP-1 and U-937” for “hSIRPα.50A, CD14+ enriched monocytes”, “FACSCanto II” for “FACSVerse”
as §3

T1 sequence (P78324 31-504): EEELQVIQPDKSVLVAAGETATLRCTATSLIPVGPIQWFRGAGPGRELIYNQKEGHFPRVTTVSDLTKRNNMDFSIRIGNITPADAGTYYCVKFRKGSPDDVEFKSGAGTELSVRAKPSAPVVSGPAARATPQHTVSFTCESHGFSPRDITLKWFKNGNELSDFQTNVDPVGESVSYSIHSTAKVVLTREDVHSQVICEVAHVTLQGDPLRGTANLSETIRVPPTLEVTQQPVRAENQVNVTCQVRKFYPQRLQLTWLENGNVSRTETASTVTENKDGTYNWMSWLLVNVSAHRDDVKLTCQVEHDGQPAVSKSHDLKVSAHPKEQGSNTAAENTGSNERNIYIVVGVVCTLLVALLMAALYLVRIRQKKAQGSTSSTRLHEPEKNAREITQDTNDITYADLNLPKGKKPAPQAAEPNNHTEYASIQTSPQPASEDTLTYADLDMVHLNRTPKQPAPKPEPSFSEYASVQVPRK
T3 sequence (P78324 other isoform, or with tags, fused parts or gaps mutant limits assumed): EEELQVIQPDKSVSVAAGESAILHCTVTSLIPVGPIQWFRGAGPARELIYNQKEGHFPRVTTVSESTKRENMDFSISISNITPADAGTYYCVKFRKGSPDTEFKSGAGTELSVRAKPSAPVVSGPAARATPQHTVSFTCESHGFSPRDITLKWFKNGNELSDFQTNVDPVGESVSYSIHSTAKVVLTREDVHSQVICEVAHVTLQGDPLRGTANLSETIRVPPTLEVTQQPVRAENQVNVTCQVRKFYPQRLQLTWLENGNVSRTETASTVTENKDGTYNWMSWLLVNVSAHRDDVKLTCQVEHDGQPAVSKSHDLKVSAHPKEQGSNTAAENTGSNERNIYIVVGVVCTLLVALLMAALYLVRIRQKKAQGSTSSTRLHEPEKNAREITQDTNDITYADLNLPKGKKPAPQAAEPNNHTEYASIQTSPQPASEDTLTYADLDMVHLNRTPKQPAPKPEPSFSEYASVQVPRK
T2 sequence (P78324 31-504 limits assumed, change not shown): as the sequence (P78324 31-504) above

B1: hSIRPα.50A (antibody, V domains shown)
VH: QVQLQQSGPELVKPGASVRISCKASGFTFTNYYIHWVKQRPGQGLEWIGWIYPGNVNTKYNEKFKAKATLTADKSSTTAYMQLSSLASEDSAVYFCARPTIIATDFDVWGAGTTVTVSS
VL: DIVMTQSHKFMSTSVGDRVNITCKASQGVGTAVGWYQQKPGQSPRLLIYWASTRHTGVPDRFTGSGSGTDFSLAISNVQSEDLADYFCQQYSTYPFTFGGGTNLEIK
notes: light chain constant domain not tied; also called mouse hSIRPα.50A; hSIRPα.50A.mIgG1
[1]
  IC50: 4.62 nM
[2]
  IC50: 7.16 nM
[3]
  EC50: 7.38 nM
[4]
  IC50: 4.61 nM
